Measurements: US20230340159A1 (published 2023)
Substitutions are numbered along the chain they refer to.

T1: murine HER2 (murine, UniProt P70424 23-1256)
T1 chain: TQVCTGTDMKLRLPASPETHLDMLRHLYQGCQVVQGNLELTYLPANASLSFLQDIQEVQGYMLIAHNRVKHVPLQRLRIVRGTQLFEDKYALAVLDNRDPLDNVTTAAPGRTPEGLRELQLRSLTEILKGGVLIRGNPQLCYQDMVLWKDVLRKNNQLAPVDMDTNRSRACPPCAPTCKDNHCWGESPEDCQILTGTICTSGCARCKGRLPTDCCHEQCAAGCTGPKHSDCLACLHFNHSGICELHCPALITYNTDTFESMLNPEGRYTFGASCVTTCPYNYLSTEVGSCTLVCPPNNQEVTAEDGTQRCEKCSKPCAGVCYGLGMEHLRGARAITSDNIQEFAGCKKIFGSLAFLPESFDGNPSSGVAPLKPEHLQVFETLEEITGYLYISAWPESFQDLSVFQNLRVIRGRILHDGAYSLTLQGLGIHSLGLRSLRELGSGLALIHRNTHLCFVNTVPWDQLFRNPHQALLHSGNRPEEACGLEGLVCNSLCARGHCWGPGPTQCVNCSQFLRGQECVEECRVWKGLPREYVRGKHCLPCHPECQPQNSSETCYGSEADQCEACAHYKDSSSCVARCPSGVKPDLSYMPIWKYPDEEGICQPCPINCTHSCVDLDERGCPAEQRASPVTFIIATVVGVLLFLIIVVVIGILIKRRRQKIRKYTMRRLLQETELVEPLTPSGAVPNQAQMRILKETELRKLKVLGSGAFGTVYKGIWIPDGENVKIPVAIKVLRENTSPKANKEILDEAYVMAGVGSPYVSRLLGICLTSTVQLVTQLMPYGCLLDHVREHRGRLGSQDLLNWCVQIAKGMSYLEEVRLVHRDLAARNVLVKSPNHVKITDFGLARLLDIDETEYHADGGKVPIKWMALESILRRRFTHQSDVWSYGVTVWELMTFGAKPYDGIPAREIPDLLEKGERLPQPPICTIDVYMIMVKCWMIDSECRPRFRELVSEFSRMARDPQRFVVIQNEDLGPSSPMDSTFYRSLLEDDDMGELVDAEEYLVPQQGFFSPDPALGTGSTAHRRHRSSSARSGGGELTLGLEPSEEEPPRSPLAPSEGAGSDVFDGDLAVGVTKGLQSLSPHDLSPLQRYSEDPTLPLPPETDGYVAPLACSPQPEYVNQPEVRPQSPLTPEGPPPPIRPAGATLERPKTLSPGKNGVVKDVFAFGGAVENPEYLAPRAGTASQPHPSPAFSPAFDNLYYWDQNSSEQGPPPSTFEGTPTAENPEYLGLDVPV

B1: h456 Pro509 (antibody, V domains shown)
VH: QVQLVESGGGLVQPGGSLRLSCAASGSALIINAMGWYRQAPGKQRELVATVTRSGRTNYADSVKGRFTISRDNSKNTLYLQMNSLRAEDTAVYYCNVALWIADGEYDYWGQGTLVTVSS
B2: mouse CA9 (enzyme)
chain: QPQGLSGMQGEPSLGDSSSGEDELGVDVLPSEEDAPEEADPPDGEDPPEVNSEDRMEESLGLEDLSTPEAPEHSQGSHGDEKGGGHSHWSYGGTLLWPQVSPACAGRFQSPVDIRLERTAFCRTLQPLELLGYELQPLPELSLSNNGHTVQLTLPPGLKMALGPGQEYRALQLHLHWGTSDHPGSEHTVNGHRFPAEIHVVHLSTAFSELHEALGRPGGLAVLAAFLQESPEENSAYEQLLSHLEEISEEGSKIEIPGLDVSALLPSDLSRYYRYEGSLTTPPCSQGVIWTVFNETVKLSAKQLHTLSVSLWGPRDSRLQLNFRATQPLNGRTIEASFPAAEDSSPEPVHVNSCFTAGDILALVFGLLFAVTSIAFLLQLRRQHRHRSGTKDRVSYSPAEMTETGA
B3: h1162 Pro1064 (antibody, V domains shown)
VH: QVQLLESGGGLVQPGGSLRLSCAASGRPFSGNAMGWFRQAPGKEREFVAAISWSGDSTYYADSVKGRFTISRDNSKNTLYLQMNSLRAEDTAVYYCAATRSFYSRTYYTRPSDYNYWGPGTLVTVSS
B4: 1159 Pro1045 (antibody, V domains shown)
VH: QVQLQESGGGLVQAGGSLRLSCATSGRTFSSLAMGWFRQAPGKERELVAGISWSGSTTYYADSVKGRFAISRDNAKNTVYLQMNSLKPEDTAVYYCAARTSSIATIGREYDYWGQGTQVTVSS
B5: h1159 Pro1062 (antibody, V domains shown)
VH: B4 VH with Q5L, A14P, A75S, V79L, K87R, P88A, Q118L
B6: 1162 Pro1047 (antibody, V domains shown)
VH: B3 VH with L5Q, P14A, S75D, K76E, L79A, R87K, A88P, L122Q
B7: 1055 Pro1036 (protein)
chain: QVQLQESGGGLVQPGGSLRLTCEVSGRAISSYAISWFRQAPGEEREFVAAINWSGTHTNYADSVKGRFTISRDNVKNTVYLQMNSLKPEDTATYFCSRGWSVFDPDYRGQGTQVTVSS
B8: 1160 Pro1046 (antibody, V domains shown)
VH: QVQLQESGGGLVQAGGSLRLSCAASGRTFSNERLGWFRQAPGKERELVAAIRWSGVIIGYADSVRGRFTISRDNAKSTVYLQMNSLRPEDTAVYFCAADRGVYGTWDYWGQGTQVTVSS
B9: 1091 Pro1039 (protein)
chain: QVQLQESGGGLVQPGGSLRLSCAASGFTFDDYAMSWVRQAPGKGLEWVSSINWSGTHTDYADSVKGRFTISRDNAKNTLYLQMNSLKSEDSAVYYCVKGWRLTGGYYDSVQGQGTQVTVSS
B10: h1156 Pro1061 (antibody, V domains shown)
VH: QVQLLESGGGLVQPGGSLRLSCAASRNIGSNYAVGWFRQAPGKEREPVAALRWTGSIIGYDDSLRGRFTISKDNSKNTLYLQMNSLKPEDTAVYYCAARILDRSSYDYWGQGTLVTVSS
B11: 1139 Pro1043 (protein)
chain: QVQLQESGGGLVQPGGSLRLSCAASGFTFDDYAMSWIRQAPGKEMEWVSGINWSGTHTRYADSVKGRFTISRDNAKNTLDLQMNSLISEDTAVYYCARGFAADSRSTRGQGTQVTVSS
B12: h1139 Pro1060 (protein)
chain: B11 chain with Q5V, L11V, Q13R, T78S, D80Y, I87R, S88A, V93L, Q113L
B13: 1092 Pro1040 (protein)
chain: B9 chain with P14A, G16A, M34L
B14: 1059 Pro1038 (protein)
chain: B7 chain with E23A, V24A, N59D, V75A, T93V
B15: 1097 Pro1041 (protein)
chain: B9 chain with T28I, S35T, L102H, G104D, G105N, D108A, S109G
B16: 1121 Pro1042 (protein)
chain: QVQLQESGGGLVQAGGSLRLSCAASGFIFSDYAMTWVRQAPGKGLEWVSSINWSGTHTNYADSVKGRFTISRDNAKKTLYLQMNSLKSEDTAVYYCARGWMVVPDSTRGQGTQVTVSS
B17: 1058 Pro1037 (protein)
chain: B7 chain with P14A, E23A, V24A, N59D, N77R
B18: 1156 Pro1044 (antibody, V domains shown)
VH: B10 VH with L5Q, P14A, R19K, L20V, N74D, S75A, L79V, A92G, L114Q

target: mouse CA9 protein (mouse, UniProt Q8VHB5 32-437)
Sequence (Q8VHB5 32-437): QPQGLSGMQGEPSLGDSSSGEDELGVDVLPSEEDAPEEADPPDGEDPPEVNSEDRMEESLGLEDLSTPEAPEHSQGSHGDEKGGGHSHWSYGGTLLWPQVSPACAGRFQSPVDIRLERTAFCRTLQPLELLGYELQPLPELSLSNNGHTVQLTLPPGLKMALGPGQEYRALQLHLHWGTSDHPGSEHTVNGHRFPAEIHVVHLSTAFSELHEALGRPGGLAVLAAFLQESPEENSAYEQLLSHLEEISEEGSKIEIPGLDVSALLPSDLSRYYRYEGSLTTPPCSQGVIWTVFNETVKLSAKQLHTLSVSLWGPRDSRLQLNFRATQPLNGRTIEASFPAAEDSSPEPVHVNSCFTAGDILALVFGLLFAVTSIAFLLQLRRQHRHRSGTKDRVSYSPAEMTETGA

Binder	Kd
B1	1.4 nM

target: 456
Sequence (Q8VHB5 32-437): as above

Binder	Kd
B2	8.2 nM

target: Human Her2 protein (human, UniProt P04626 23-652)

Binder	Kd
B3	22.9 nM
B4	18 nM
B5	106 nM
B6	21.4 nM
B7	53.1 nM
B8	56.7 nM
B9	6 nM
B10	< 0.01 nM
B11	5.6 nM
B12	7.3 nM
B13	3.1 nM
B14	23 nM
B15	2.5 nM
B16	3.8 nM
B17	8.6 nM
B18	6.6 nM

Target: T1, murine HER2

Binder	Kd
B3	122 nM
B4	80 nM
B5	19100 nM
B6	54 nM
